Patent publication CN117024592A (WEST CHINA HOSPITAL SICHUAN UNIV, dated 2023)

T1: B7H3-His重组蛋白 (human, UniProt Q5ZPR3 29-466)
T1 construct: extracellular domain; also called 携带His标签的重组B7H3蛋白; not shown: C-terminal His tag
T1 sequence (looked up): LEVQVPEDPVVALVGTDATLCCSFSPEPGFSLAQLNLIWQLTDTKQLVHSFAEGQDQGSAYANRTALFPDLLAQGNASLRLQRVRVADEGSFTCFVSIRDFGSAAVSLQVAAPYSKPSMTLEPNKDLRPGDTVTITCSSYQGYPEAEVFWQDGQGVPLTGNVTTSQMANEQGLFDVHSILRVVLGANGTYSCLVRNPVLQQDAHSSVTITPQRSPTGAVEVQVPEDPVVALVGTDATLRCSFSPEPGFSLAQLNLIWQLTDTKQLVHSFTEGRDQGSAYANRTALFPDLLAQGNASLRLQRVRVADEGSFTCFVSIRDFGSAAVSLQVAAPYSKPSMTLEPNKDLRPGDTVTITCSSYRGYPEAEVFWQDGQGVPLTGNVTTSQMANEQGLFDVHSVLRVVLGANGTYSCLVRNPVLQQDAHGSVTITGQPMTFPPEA

T2: 人源B7H3(细胞表面表达) (human, UniProt Q5ZPR3 29-534)
T2 construct: whole, on cells; in the ADCC assay the protein is the endogenous B7H3 of A375 cells; also called CD276; 人B7H3
T2 sequence (looked up): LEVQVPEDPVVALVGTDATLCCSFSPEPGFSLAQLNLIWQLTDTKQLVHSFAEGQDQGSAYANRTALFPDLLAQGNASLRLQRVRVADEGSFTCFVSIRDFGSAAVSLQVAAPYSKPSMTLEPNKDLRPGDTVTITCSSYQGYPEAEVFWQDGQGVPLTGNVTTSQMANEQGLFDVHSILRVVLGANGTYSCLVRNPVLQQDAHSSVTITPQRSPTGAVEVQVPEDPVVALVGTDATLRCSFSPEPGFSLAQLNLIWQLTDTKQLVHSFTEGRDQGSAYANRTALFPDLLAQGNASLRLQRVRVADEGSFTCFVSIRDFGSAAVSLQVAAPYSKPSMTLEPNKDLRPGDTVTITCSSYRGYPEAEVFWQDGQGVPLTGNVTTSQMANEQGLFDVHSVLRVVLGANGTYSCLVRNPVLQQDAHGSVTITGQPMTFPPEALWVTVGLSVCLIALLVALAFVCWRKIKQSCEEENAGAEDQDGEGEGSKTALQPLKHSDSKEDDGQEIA

T3: 鼠源B7H3(稳定表达细胞株mB7H3-CHO) (mouse, UniProt Q8VE98 29-316)
T3 construct: whole, on cells; also called 鼠B7H3蛋白
T3 sequence (looked up): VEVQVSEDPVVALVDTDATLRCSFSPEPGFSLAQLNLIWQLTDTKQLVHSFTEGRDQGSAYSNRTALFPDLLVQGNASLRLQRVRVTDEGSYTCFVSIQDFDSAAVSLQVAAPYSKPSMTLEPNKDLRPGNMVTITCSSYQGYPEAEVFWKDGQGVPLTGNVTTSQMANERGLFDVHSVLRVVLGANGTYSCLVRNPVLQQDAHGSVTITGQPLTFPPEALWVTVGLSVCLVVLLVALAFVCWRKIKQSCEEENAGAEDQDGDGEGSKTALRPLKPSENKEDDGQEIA


Tests used:
B7H3-His重组蛋白 = target: T1, B7H3-His重组蛋白; assay: SPR (Biacore), B7H3-His amine-coupled to CM5 chip, antibody as analyte
人源B7H3(细胞表面表达) [1] = target: T2, 人源B7H3(细胞表面表达); assay: flow cytometry, hybridoma supernatant on cells expressing B7H3
鼠源B7H3(稳定表达细胞株mB7H3-CHO) = target: T3, 鼠源B7H3(稳定表达细胞株mB7H3-CHO); assay: flow cytometry, hybridoma supernatant on mB7H3-CHO cells
人源B7H3(细胞表面表达) [2] = target: T2, 人源B7H3(细胞表面表达); assay: flow cytometry on CHO cells stably expressing B7H3

| Binder | binding result (B7H3-His重组蛋白) | binding result (人源B7H3(细胞表面表达) [1]) | binding result (鼠源B7H3(稳定表达细胞株mB7H3-CHO)) | binding result (人源B7H3(细胞表面表达) [2]) |
| --- | --- | --- | --- | --- |
| 鼠源单克隆抗体J65(杂交瘤克隆J65上清) (antibody, V domains shown, Mouse monoclonal antibody as secreted by the hybridoma (supernatant used in flow cytometry); also called 杂交瘤J65; 单抗J65) VH: EVQLQESGGDLVKPGGSLKLSCEASGFTFSSHGMSWIRQTPDKRLDWVATISGGGRYSYYPDNIQGRFTISRDNAKDTLYLQMSSLQSEDTALYYCARHWDGYLDYWGQGTTLTVSS VL: DIVMTQTPASLSASVGETVTITCRPSENIYSYLAWYQQKQGKSPQLLVYNAKTLTEGAPSRFSGSGSGTQFSLKINSLQPEDFGIYYCQHHYGPPPYTFGGGTKVEIK | binds | binds | no binding | – |
| 重组鼠源单抗J65(mJ65) (antibody, V domains shown, also called 重组鼠单抗mJ65) VH: EVQLQESGGDLVKPGGSLKLSCEASGFTFSSHGMSWIRQTPDKRLDWVATISGGGRYSYYPDNIQGRFTISRDNAKDTLYLQMSSLQSEDTALYYCARHWDGYLDYWGQGTTLTVSS VL: DIVMTQTPASLSASVGETVTITCRPSENIYSYLAWYQQKQGKSPQLLVYNAKTLTEGAPSRFSGSGSGTQFSLKINSLQPEDFGIYYCQHHYGPPPYTFGGGTKVEIK | – | – | – | binds |

Further lines, results first:

| binding result (B7H3-His重组蛋白) | binding result (人源B7H3(细胞表面表达) [1]) | binding result (鼠源B7H3(稳定表达细胞株mB7H3-CHO)) | binding result (人源B7H3(细胞表面表达) [2]) | Binder |
| --- | --- | --- | --- | --- |
| – | – | – | binds | 嵌合抗体J65(cJ65) (antibody, V domains shown, also called cJ65-1) VH: EVQLQESGGDLVKPGGSLKLSCEASGFTFSSHGMSWIRQTPDKRLDWVATISGGGRYSYYPDNIQGRFTISRDNAKDTLYLQMSSLQSEDTALYYCARHWDGYLDYWGQGTTLTVSS VL: DIVMTQTPASLSASVGETVTITCRPSENIYSYLAWYQQKQGKSPQLLVYNAKTLTEGAPSRFSGSGSGTQFSLKINSLQPEDFGIYYCQHHYGPPPYTFGGGTKVEIK |
| binds | – | – | binds | 人源化单抗huJ65-2 (antibody, V domains shown, also called hJ65-2; 人源化抗体2) VH: EVQLVESGGGLVQPGGSLRLSCEASGFTFSSHGMSWVRQAPGKGLEWVATISGGGRYSYYPDNIQGRFTISRDNAKNSLYLQMNSLRAEDTAVYYCARHWDGYLDYWGQGTLVTVSS VL: DIQMTQSPSSLSASVGDRVTITCRPSENIYSYLAWYQQKPGKAPKLLVYNAKTLTEGAPSRFSGSGSGTDFTLTISSLQPEDFATYYCQHHYGPPPYTFGQGTKVEIK |
